The values that follow come from the supplement of paper PMC10724198.

± gives the standard deviation of the averaged measurements.
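Further: PSI is a weighted mean of sequencing reads over stability bins, variants kept only with over 10 reads, mCherry proximal and sfGFP distal, peptide attached via GGGS linker.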

The test system of this data set is Saccharomyces cerevisiae. The data set is described as follows: protein stability index of tFT-peptide fusion (C-terminal peptide) (PSI (0-1 scale)); higher = more stable (slower turnover). The following applies: genetic background: wild type; temperature: 30 C.
As to LAPALSHSPPLT, the protein stability index was 0.715 ± 0.078. LARGGAAIGGES displayed a protein stability index of 0.729 ± 0.086. For LAVPPSLPPPTR the value was 0.7254 ± 0.0063; for LCDLGLMLFPFV, 0.666 ± 0.032; for LCFGGLVLFSFG, 0.601 ± 0.035. For LCGAVVEGGGEE the value was 0.5743 ± 0.004; for LCLFSVRPARLL, 0.753 ± 0.13; for LCLGVLRSDCVV, 0.675 ± 0.011. For LCLREPTITTQW the value was 0.786 ± 0.3. Turning to LCPPPRPPRSHL, the protein stability index came to 0.941 ± 0.039. With LCSRICGVVARA the figure was 0.613 ± 0.042.

The sequence LCVVRGLLCSPL came in with a protein stability index of 0.628 ± 0.0092.

Consider LDAMNTSWYVKM, for which the protein stability index amounted to 0.676 ± 0.025. For LDARYRSSVGFK the value was 0.68876 ± 0.00018; for LDGAGFLLSWYH, 0.749 ± 0.013; for LDGIKVKFRRSL, 0.698 ± 0.013. As to LDKGNQDHEWTR, the protein stability index stood at 0.654 ± 0.023. For LDLAMRQYDLTG the value was 0.681 ± 0.06; for LDSGSVYMSRDI, 0.652 ± 0.015; for LDSRSELGRGLK, 0.714 ± 0.018.

Sequence LDVFPVWSDANA had a protein stability index of 0.714 ± 0.031. With LEGGAGRPDGTG the figure was 0.671 ± 0.047; with LEGILFGPKIAT, 0.6227 ± 0.0049. In turn, LEHPAHPTKLQL yielded a protein stability index of 0.7067 ± 0.0033. For LEKKRRKNKKEG the value was 0.787 ± 0.14; for LEMTGGACGGGK, 0.675 ± 0.029; for LEPGSYRKRKPP, 0.587 ± 0.023.

LERKRKYSPHDQ displayed a protein stability index of 0.677 ± 0.025. The sequence LERSSHRTEFLS registered a protein stability index of 0.587 ± 0.032. With LEYLGFSLSGFR the figure was 0.724 ± 0.016; with LFAAPARTSAPC, 0.779 ± 0.055; with LFCVAPLGSVSY, 0.652 ± 0.033. With LFFGVACSWFSV the figure was 0.621 ± 0.013; with LFGFLGVAACVV, 0.483 ± 0.048.

In turn, LFHAPLFPPSSF showed a protein stability index of 0.657 ± 0.04. With LFLEGWIRKGVR the figure was 0.7427 ± 0.0059; with LFLPLPRCHALP, 0.7037 ± 0.0066. In turn, LFLSLSGSYRCI displayed a protein stability index of 0.532 ± 0.079. For LFPLSSPFPSTS the value was 0.766 ± 0.23; for LFPPPPSPLGHS, 0.75227 ± 0.00052; for LFPYPPASALLR, 0.662 ± 0.019. For LFSLFFPTCFRF the value was 0.557 ± 0.0092; for LFSPPTFFLFHR, 0.6445 ± 0.0046; for LFSSLNLFSSRD, 0.7355 ± 0.0033.

Turning to LFVEFFACRSFN, the protein stability index was determined as 0.722 ± 0.011.

In the case of LFVSLLGAFVVG, the protein stability index came out at 0.529 ± 0.03.

LFYFPVLSGFLA yielded a protein stability index of 0.578 ± 0.002. For LGAHRPLLSVLH the value was 0.661 ± 0.037; for LGFPSFFPNVSV, 0.6946 ± 0.0017. For LGGGAGAPPSHW the value was 0.7 ± 0.024.

As to LGGPGAVWGRGR, the protein stability index was 0.697 ± 0.0084. Take LGGWVGGRGVRG: the protein stability index is 0.717 ± 0.096. With LGIGTWGHRGDD the figure was 0.712 ± 0.015; with LGLSTLLVPHTR, 0.743 ± 0.028; with LGNPVLRFILEK, 0.597 ± 0.094. Regarding LGPLILDGATDC, the protein stability index is 0.688 ± 0.11. For LGQWGGGLSGSV the value was 0.685 ± 0.033; for LGRGEVWYIDRG, 0.696 ± 0.017; for LGRRHAYGSALS, 0.708 ± 0.12. For LGSAIQGFLILT the value was 0.5996 ± 0.0017. Sequence LGSSGCVLVGWG yielded a protein stability index of 0.683 ± 0.0084.

In the case of LGSSPPPTLPPP, the protein stability index worked out at 0.701 ± 0.031. For LGVGVGGRGVRG, the protein stability index was found to be 0.745 ± 0.0098.

As to LGVLGGGRRFGV, the protein stability index was found to be 0.715 ± 0.019. For LGVRSGGSWRAG the value was 0.792 ± 0.064; for LGVVCLGADLLR, 0.693 ± 0.026; for LHAPFPLPPPPP, 0.647 ± 0.026. On to LHCLGFWRVMYG, for which the protein stability index was found to be 0.6538 ± 0.0011. With LHCPRICYSPHL the figure was 0.715 ± 0.059; with LHEHHSFCFRLL, 0.658 ± 0.1; with LHFYSLMEFQCD, 0.695 ± 0.038. With LHHPPSPLRNPP the figure was 0.687 ± 0.059; with LHHYPLVISGVS, 0.47 ± 0.12.

As to LHPPLPPLPFSA, the protein stability index was 0.679 ± 0.017. With LHVPPSPFPTPP the figure was 0.679 ± 0.049.

In the case of LIAGLNLASYGL, the protein stability index is 0.643 ± 0.1. For LIALSLPSSFVF the value was 0.594 ± 0.025; for LICVSTLAPSGQ, 0.676 ± 0.0078. As to LIFACIYFSGVV, the protein stability index is 0.644 ± 0.047. For LIGASFGLYPVS the value was 0.693 ± 0.07.
